The values below come from the supplement of paper PMC7125110.

± gives the standard error. For part of these data: This sample holds only a part of the variants without activity. Bounds are passed on as bounds.

The labels stand for the following.
B1: glmS ribozyme (parent)
chain: AUAAAAGCGCCAGAACUACAGAAAUGUAGUUGACGAGGAGGAGGUUUAUCGAAUUUUCGGCGGAUGCCUCCAAA

Holding throughout (settings): with glucosamine-6-phosphate
The variants in series [1] derive from B1. Put plainly: kcat; higher = faster cleavage; RNA array. In a few lines: (§1)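 Tiles of sequenced MiSeq chips were imaged over ~14 h at 37 °C. On them, barcoded ribozyme variants had been transcribed in situ by E. coli RNA polymerase and were tracked via a hybridised Cy3 probe while glucosamine-6-phosphate (40 μM to 10 mM) in HEPES/KCl/Mg(OAc)2 buffer flowed in. Per-tile medians, normalised to baseline and to non-cleaving reference variants, were fit to one- or two-exponential decays for kobs, and weighted Michaelis–Menten fits gave kcat and KM.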

In series [2] the parent is B1. The series is described as follows: KM; higher = weaker cofactor use; RNA array. In a few lines: as §1
Series [3] covers variants of B1. Put plainly: self-cleavage kobs at 2500 uM GlcN6P; higher = faster cleavage; RNA array. In a few lines: as §1
The variants in series [4] derive from B1. The series is described as follows: self-cleavage kobs at 10000 uM GlcN6P; higher = faster cleavage; RNA array. In a few lines: as §1
Series [5] covers variants of B1. The series is described as follows: self-cleavage kobs at 160 uM GlcN6P; higher = faster cleavage; RNA array. In a few lines:
as §1

Series [6] covers variants of B1. Put plainly: self-cleavage kobs at 640 uM GlcN6P; higher = faster cleavage; RNA array. In a few lines: as §1
Series [7] covers variants of B1. The series is described as follows: self-cleavage kobs at 40 uM GlcN6P; higher = faster cleavage; RNA array. In a few lines: as §1

As for G29U U49G, the kcat with glucosamine-6-phosphate [1] amounted to 0.000125 ± 2e-05 s⁻¹. Further, the Michaelis-Menten constant (KM) with glucosamine-6-phosphate [2] came to 5270 ± 1900 µM. The “self-cleavage kobs at 2500 uM GlcN6P” value in the series with glucosamine-6-phosphate [3] is 3.79e-05 ± 1.7e-05 s⁻¹. Besides, the “self-cleavage kobs at 10000 uM GlcN6P” value with glucosamine-6-phosphate [4] turned out to be 8.25e-05 ± 1.9e-05 s⁻¹.

As for C50G G60A, the kcat with glucosamine-6-phosphate [1] came out at 4.61e-05 ± 2.1e-05 s⁻¹. The “self-cleavage kobs at 160 uM GlcN6P” value with glucosamine-6-phosphate [5] is 7.6e-05 ± 1.9e-05 s⁻¹. Besides, the “self-cleavage kobs at 2500 uM GlcN6P” value in the series with glucosamine-6-phosphate [3] is 4.5e-05 ± 1.8e-05 s⁻¹.

Take A12G C67A: the catalytic constant (kcat) in the series with glucosamine-6-phosphate [1] was determined as 0.000389 ± 8.6e-05 s⁻¹. For the same variant, the KM in the series with glucosamine-6-phosphate [2] worked out at 2400 ± 880 µM. Also, the “self-cleavage kobs at 160 uM GlcN6P” value with glucosamine-6-phosphate [5] was found to be 4.4e-05 ± 1e-05 s⁻¹. In addition, in the series with glucosamine-6-phosphate [6], the “self-cleavage kobs at 640 uM GlcN6P” value stood at 7.88e-05 ± 8.7e-06 s⁻¹. For the same variant, the “self-cleavage kobs at 2500 uM GlcN6P” value with glucosamine-6-phosphate [3] worked out at 0.000186 ± 2.1e-05 s⁻¹. Further, in the series with glucosamine-6-phosphate [4], the “self-cleavage kobs at 10000 uM GlcN6P” value worked out at 0.000343 ± 4.8e-05 s⁻¹.

As for A15G C70G, the turnover number (kcat) with glucosamine-6-phosphate [1] was determined as 0.000355 ± 6.5e-05 s⁻¹. Also, in the series with glucosamine-6-phosphate [2], the KM worked out at 180 ± 79 µM. Besides, the “self-cleavage kobs at 40 uM GlcN6P” value with glucosamine-6-phosphate [7] stood at 8.28e-05 ± 1.3e-05 s⁻¹. Also, the “self-cleavage kobs at 160 uM GlcN6P” value in the series with glucosamine-6-phosphate [5] amounted to 0.000137 ± 1.9e-05 s⁻¹. In the series with glucosamine-6-phosphate [6], the “self-cleavage kobs at 640 uM GlcN6P” value was found to be 0.000303 ± 2.7e-05 s⁻¹. Besides, the “self-cleavage kobs at 10000 uM GlcN6P” value with glucosamine-6-phosphate [4] worked out at 0.00033 ± 5.4e-05 s⁻¹.

In the case of G29U U47A, the kcat with glucosamine-6-phosphate [1] was determined as 0.00313 ± 0.00095 s⁻¹. Also, in the series with glucosamine-6-phosphate [2], the KM was determined as 1350 ± 650 µM. Further, in the series with glucosamine-6-phosphate [7], the “self-cleavage kobs at 40 uM GlcN6P” value stood at 9.83e-05 ± 1.2e-05 s⁻¹. In addition, the “self-cleavage kobs at 640 uM GlcN6P” value in the series with glucosamine-6-phosphate [6] was 0.000972 ± 0.00015 s⁻¹. Further, in the series with glucosamine-6-phosphate [3], the “self-cleavage kobs at 2500 uM GlcN6P” value came out at 0.00104 ± 0.00036 s⁻¹. In addition, the “self-cleavage kobs at 10000 uM GlcN6P” value with glucosamine-6-phosphate [4] turned out to be 0.0033 ± 0.00035 s⁻¹.

In the case of A6G G66A, the kcat in the series with glucosamine-6-phosphate [1] was determined as 0.000421 ± 2.1e-05 s⁻¹. The Michaelis-Menten constant (KM) in the series with glucosamine-6-phosphate [2] is 2650 ± 210 µM. Besides, the “self-cleavage kobs at 640 uM GlcN6P” value with glucosamine-6-phosphate [6] is 8.05e-05 ± 1.4e-05 s⁻¹. Moreover, the “self-cleavage kobs at 2500 uM GlcN6P” value with glucosamine-6-phosphate [3] worked out at 0.000217 ± 5.1e-05 s⁻¹. Further, the “self-cleavage kobs at 10000 uM GlcN6P” value in the series with glucosamine-6-phosphate [4] worked out at 0.000325 ± 7.5e-05 s⁻¹.

Turning to C10U G66A, the kcat in the series with glucosamine-6-phosphate [1] was found to be 1.5e-05 ± 2.3e-06 s⁻¹.

With U47A A48U, the kcat with glucosamine-6-phosphate [1] came to 0.000219 ± 1.3e-05 s⁻¹. In the series with glucosamine-6-phosphate [2], the KM was determined as 1570 ± 190 µM. Further, the “self-cleavage kobs at 640 uM GlcN6P” value with glucosamine-6-phosphate [6] came out at 6.18e-05 ± 1e-05 s⁻¹. Moreover, in the series with glucosamine-6-phosphate [3], the “self-cleavage kobs at 2500 uM GlcN6P” value was found to be 0.000143 ± 2.2e-05 s⁻¹. In the series with glucosamine-6-phosphate [4], the “self-cleavage kobs at 10000 uM GlcN6P” value is 0.000181 ± 3.1e-05 s⁻¹.

For the variant G29A G40A, the kcat with glucosamine-6-phosphate [1] turned out to be 0.000354 ± 5.1e-05 s⁻¹. Also, the Michaelis constant (KM) in the series with glucosamine-6-phosphate [2] was 1090 ± 350 µM. The “self-cleavage kobs at 160 uM GlcN6P” value in the series with glucosamine-6-phosphate [5] was determined as 3.78e-05 ± 1.7e-05 s⁻¹. Besides, the “self-cleavage kobs at 640 uM GlcN6P” value with glucosamine-6-phosphate [6] was 0.000154 ± 2.9e-05 s⁻¹. Also, the “self-cleavage kobs at 2500 uM GlcN6P” value in the series with glucosamine-6-phosphate [3] is 0.000222 ± 3.7e-05 s⁻¹. The “self-cleavage kobs at 10000 uM GlcN6P” value with glucosamine-6-phosphate [4] is 0.000353 ± 7.2e-05 s⁻¹.

For the variant A12U G37C, in the series with glucosamine-6-phosphate [1], the kcat came to 0.000148 ± 1.2e-05 s⁻¹. Further, in the series with glucosamine-6-phosphate [2], the Michaelis-Menten constant (KM) was found to be 4210 ± 790 µM. For the same variant, the “self-cleavage kobs at 160 uM GlcN6P” value with glucosamine-6-phosphate [5] was less than 1e-05 s⁻¹. For the same variant, the “self-cleavage kobs at 2500 uM GlcN6P” value with glucosamine-6-phosphate [3] stood at 5.79e-05 ± 8.6e-06 s⁻¹. In the series with glucosamine-6-phosphate [4], the “self-cleavage kobs at 10000 uM GlcN6P” value was determined as 0.000104 ± 9.8e-06 s⁻¹.

Turning to U47C A64U, the kcat with glucosamine-6-phosphate [1] was 0.000108 ± 8.5e-06 s⁻¹. The Michaelis-Menten constant (KM) with glucosamine-6-phosphate [2] was 363 ± 170 µM. Moreover, in the series with glucosamine-6-phosphate [6], the “self-cleavage kobs at 640 uM GlcN6P” value was 7.89e-05 ± 1.8e-05 s⁻¹. Besides, the “self-cleavage kobs at 2500 uM GlcN6P” value in the series with glucosamine-6-phosphate [3] is 9.46e-05 ± 2.2e-05 s⁻¹. For the same variant, the “self-cleavage kobs at 10000 uM GlcN6P” value with glucosamine-6-phosphate [4] is 0.000102 ± 1.2e-05 s⁻¹.

With U30A C50U, the turnover number (kcat) in the series with glucosamine-6-phosphate [1] amounted to 1.13e-05 ± 4.2e-06 s⁻¹.

On to A15G G44A, for which the kcat in the series with glucosamine-6-phosphate [1] came out at 0.000572 ± 0.00011 s⁻¹. In addition, the Michaelis-Menten constant (KM) in the series with glucosamine-6-phosphate [2] worked out at 2050 ± 620 µM. Besides, the “self-cleavage kobs at 160 uM GlcN6P” value with glucosamine-6-phosphate [5] worked out at 2.81e-05 ± 1.2e-05 s⁻¹. Moreover, the “self-cleavage kobs at 640 uM GlcN6P” value with glucosamine-6-phosphate [6] is 0.000152 ± 2.1e-05 s⁻¹. In the series with glucosamine-6-phosphate [3], the “self-cleavage kobs at 2500 uM GlcN6P” value is 0.000327 ± 5.5e-05 s⁻¹. Also, in the series with glucosamine-6-phosphate [4], the “self-cleavage kobs at 10000 uM GlcN6P” value is 0.00044 ± 9.5e-05 s⁻¹.

As to G43U U65G, the turnover number (kcat) in the series with glucosamine-6-phosphate [1] is 4.38e-05 ± 9.2e-07 s⁻¹. Further, the KM in the series with glucosamine-6-phosphate [2] is 2380 ± 190 µM. The “self-cleavage kobs at 40 uM GlcN6P” value with glucosamine-6-phosphate [7] is less than 1e-05 s⁻¹. Also, the “self-cleavage kobs at 10000 uM GlcN6P” value with glucosamine-6-phosphate [4] turned out to be 3.53e-05 ± 1.1e-05 s⁻¹.

With A15U U69A, the catalytic constant (kcat) with glucosamine-6-phosphate [1] is 7.22e-05 ± 1.3e-05 s⁻¹. Further, in the series with glucosamine-6-phosphate [6], the “self-cleavage kobs at 640 uM GlcN6P” value was determined as 4.48e-05 ± 1.1e-05 s⁻¹. The “self-cleavage kobs at 2500 uM GlcN6P” value with glucosamine-6-phosphate [3] was determined as 8.33e-05 ± 1e-05 s⁻¹. Besides, in the series with glucosamine-6-phosphate [4], the “self-cleavage kobs at 10000 uM GlcN6P” value amounted to 5.39e-05 ± 1.2e-05 s⁻¹.

As for G40U C58A, in the series with glucosamine-6-phosphate [1], the kcat worked out at 0.000609 ± 4.4e-05 s⁻¹. In addition, the “self-cleavage kobs at 40 uM GlcN6P” value with glucosamine-6-phosphate [7] was less than 1e-05 s⁻¹. The “self-cleavage kobs at 160 uM GlcN6P” value in the series with glucosamine-6-phosphate [5] was less than 1e-05 s⁻¹. The “self-cleavage kobs at 10000 uM GlcN6P” value in the series with glucosamine-6-phosphate [4] stood at 3.81e-05 ± 9.5e-06 s⁻¹.

As to A14U C50U C67G, in the series with glucosamine-6-phosphate [1], the catalytic constant (kcat) was determined as 3.51e-05 ± 1.5e-05 s⁻¹.

As usually defined, the kcat is the maximal rate divided by the concentration of active sites. The KM is the substrate concentration at which the rate is half of its maximum.
